{
  "source": "paper PMC4451881",
  "about": "“Functional display of heterotetrameric human protein kinase CK2 on Escherichia coli: a novel tool for drug discovery” (Microbial Cell Factories, 2015)",
  "target": "T1, CK2α-AT, autotransporter fusion protein with the human protein kinase CK2 α-subunit as passenger domain (human, UniProt P68400 2-391)",
  "T1 sequence (looked up)": "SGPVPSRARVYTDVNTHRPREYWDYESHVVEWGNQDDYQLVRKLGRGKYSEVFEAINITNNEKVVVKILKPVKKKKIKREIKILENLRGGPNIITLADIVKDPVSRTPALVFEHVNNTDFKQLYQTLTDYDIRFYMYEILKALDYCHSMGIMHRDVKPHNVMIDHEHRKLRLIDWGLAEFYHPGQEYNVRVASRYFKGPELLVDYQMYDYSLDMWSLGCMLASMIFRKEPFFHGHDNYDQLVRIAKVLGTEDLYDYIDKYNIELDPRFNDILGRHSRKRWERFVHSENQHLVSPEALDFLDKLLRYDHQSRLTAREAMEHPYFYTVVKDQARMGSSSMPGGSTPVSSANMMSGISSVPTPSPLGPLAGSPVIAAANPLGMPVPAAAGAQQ",
  "assay": "cell-based or functional assay",
  "data": [
    {"binder": "CK2β-AT, autotransporter fusion protein with the human protein kinase CK2 β-subunit as passenger domain (natural protein) not shown", "values": [
      {"measurement": "radiometric whole-cell kinase activity normalised to the expression level of CK2α-AT, cells co-displaying both subunits against cells displaying CK2α alone", "value": "> 5", "unit": "fold"}
    ]}
  ]
}
